# Results reported in article PMC2268108 (The Journal of General Physiology, 2005).
# Changes are numbered by the printed parent chain. Names may count otherwise.
# B1: KcsA T75C (natural protein)
# chain: MPPMLSGLLARLVKLLLGRHGSALHWRAAGAATVLLVIVLLAGSYLAVLAERGAPGAQLITYPRALWWSVETATCVGYGDLYPVTLWGRLVAVVVMVAGITSFGLVTAALATWFVGREQERRGHFVRHSEKAAEEAYTRTTRALHERFDRLERMLDDNRR
# B2: KcsA Thr75 to Ala (natural protein)
# chain: B1 chain with C75A
# B3: KdpFABC complex from Escherichia coli (complex)
# chain 1: MSAGVITGVLLVFLLLGYLVYALINAEAF
# chain 2: MAAQGFLLIATFLLVLMVLARPLGSGLARLINDIPLPGTTGVERVLFRALGVSDREMNWKQYLCAILGLNMLGLAVLFFMLLGQHYLPLNPQQLPGLSWDLALNTAVSFVTNTNWQSYSGETTLSYFSQMAGLTVQNFLSAASGIAVIFALIRAFTRQSMSTLGNAWVDLLRITLWVLVPVALLIALFFIQQGALQNFLPYQAVNTVEGAQQLLPMGPVASQEAIKMLGTNGGGFFNANSSHPFENPTALTNFVQMLAIFLIPTALCFAFGEVMGDRRQGRMLLWAMSVIFVICVGVVMWAEVQGNPHLLALGTDSSINMEGKESRFGVLVSSLFAVVTTAASCGAVIAMHDSFTALGGMVPMWLMQIGEVVFGGVGSGLYGMMLFVLLAVFIAGLMIGRTPEYLGKKIDVREMKLTALAILVTPTLVLMGAALAMMTDAGRSAMLNPGPHGFSEVLYAVSSAANNNGSAFAGLSANSPFWNCLLAFCMFVGRFGVIIPVMAIAGSLVSKKSQAASSGTLPTHGPLFVGLLIGTVLLVGALTFIPALALGPVAEYLS
# chain 3: MSRKQLALFEPTLVVQALKEAVKKLNPQAQWRNPVMFIVWIGSLLTTCISIAMASGAMPGNALFSAAISGWLWITVLFANFAEALAEGRSKAQANSLKGVKKTAFARKLREPKYGAAADKVPADQLRKGDIVLVEAGDIIPCDGEVIEGGASVDESAITGESAPVIRESGGDFASVTGGTRILSDWLVIECSVNPGETFLDRMIAMVEGAQRRKTPNEIALTILLIALTIVFLLATATLWPFSAWGGNAVSVTVLVALLVCLIPTTIGGLLSAIGVAGMSRMLGANVIATSGRAVEAAGDVDVLLLDKTGTITLGNRQASEFIPAQGVDEKTLADAAQLASLADETPEGRSIVILAKQRFNLRERDVQSLHATFVPFTAQSRMSGINIDNRMIRKGSVDAIRRHVEANGGHFPTDVDQKVDQVARQGATPLVVVEGSRVLGVIALKDIVKGGIKERFAQLRKMGIKTVMITGDNRLTAAAIAAEAGVDDFLAEATPEAKLALIRQYQAEGRLVAMTGDGTNDAPALAQADVAVAMNSGTQAAKEAGNMVDLDSNPTKLIEVVHIGKQMLMTRGSLTTFSIANDVAKYFAIIPAAFAATYPQLNALNIMCLHSPDSAILSAVIFNALIIVFLIPLALKGVSYKPLTASAMLRRNLWIYGLGGLLVPFIGIKVIDLLLTVCGLV
# chain 4: MSGLRPALSTFIFLLLITGGVYPLLTTVLGQWWFPWQANGSLIREGDTVRGSALIGQNFTGNGYFHGRPSATAEMPYNPQASGGSNLAVSNPELDKLIAARVAALRAANPDASASVPVELVTASASGLDNNITPQAAAWQIPRVAKARNLSVEQLTQLIAKYSQQPLVKYIGQPVVNIVELNLALDKLDE
# B4: pig gastric H/K-ATPase (αβ protomer), FITC-modified (complex)
# chain 1: not shown
# chain 2: MAALQEKKSCSQRMEEFQRYCWNPDTGQMLGRTLSRWVWISLYYVAFYVVMSGIFALCIYVLMRTIDPYTPDYQDQLKSPGVTLRPDVYGEKGLDISYNVSDSTTWAGLAHTLHRFLAGYSPAAQEGSINCTSEKYFFQESFLAPNHTKFSCKFTADMLQNCSGRPDPTFGFAEGKPCFIIKMNRIVKFLPGNSTAPRVDCAFLDQPRDGPPLQVEYFPANGTYSLHYFPYYGKKAQPHYSNPLVAAKLLNVPRNRDVVIVCKILAEHVSFDNPHDPYEGKVEFKLKIQK
# Columns and labels:
# [1] = target: the molecule itself; experiment: SDS-PAGE of the tetramer
# [2] = target: the molecule itself; experiment: cross-linking
# [3] = target: the molecule itself; experiment: single-molecule fluorescence
# [4] = target: the molecule itself; experiment: single-molecule fluorescence; remark: listed apart in the source
protein,measurement,setting,value
B1,binding result,[1],binds
B2,binding result,[1],binds
B3,stoichiometry N,[2],2
B4,stoichiometry N,[3],2
same,stoichiometry N,[4],4
